In data set [1] the target is Csm2 with a 6-His tag on the N-terminus (Csm2^H6N) (S. epidermidis RP62a). The data set is described as follows: co-purification.
Data set [2] addresses recombinant Csm3 (untagged) (S. epidermidis). The data set is described as follows: native gel or EMSA. (In general: A gel shift assay detects complexes by their altered migration in electrophoresis.)
The data set “native gel or EMSA” deals with the molecule itself. The data set can be described thus: native gel or EMSA.
Data set [3] deals with Csm5–Smt3 (Csm5 with an N-terminal His10Smt3 tag) (S. epidermidis). The data set is described as follows: pull-down.

This note sets out measurements from PMC5389561 (Nucleic Acids Research, 2016).

One may read the stoichiometry N as the number of molecules, sites or subunits per partner or assembly.

For the molecule “Csm3 (wild type, in the Cas10–Csm complex) (natural protein)”, the % Csm3 band intensity of the total band intensity of the purified complex in data set [1] is 18%. With “Csm3 D179A (in the Cas10–Csm complex) (natural protein)”, the % Csm3 band intensity of the total band intensity of the purified complex in data set [1] was 12%. On to “recombinant Csm3 (untagged) (natural protein)”, for which, in data set [2], the stoichiometry N came out at 6.

B1: recombinant polynucleotide phosphorylase (PNPase), untagged (enzyme, S. epidermidis RP62a, UniProt Q5HPR7 1-701, looked up)
chain: MSQEKKVFKTEWAGRSLTIETGQLAKQANGAVLVRYGDTVVLSTATASKEPRDGDFFPLTVNYEEKMYAAGKIPGGFKKREGRPGDEATLTARLIDRPIRPLFPKGYRHDVQIMNIVLSADPDCSPEMAAMIGSSMALSVSDIPFQGPIAGVNVGYIDGKYVINPSVADKEISRLDLEVAGHKDAVNMVEAGASEITESEMLEAIFFGHEEIKRLVAFQQEIIDHIQPIKQEFVPVERDEDLVEKVKSLTEDKGLKDTVLTFDKQQRDENLDALKEEVVGHFLDEEDPENETLVKEVYAILNDLIKEEVRRLIADEKIRPDGRKVDEIRPLESEVGLLPRAHGSGLFTRGQTQALSVLTLGALGDYQLIDGLGPEVEKRFMHHYNFPNFSVGETGPVRAPGRREIGHGALGERALRYIIPDTQDFPYTIRIVSEVLESNGSSSQASICGSTLALMDAGVPIKAPVAGIAMGLVTRDDSYTILTDIQGMEDALGDMDFKVAGTKDGITAIQMDIKIDGLTREVIEEALEQARQGRLAIMDHMLHTIEQPREELSAYAPKVVTMSINPDKIRDVIGPGGKKINEIIDETGVKLDIEQDGTIFIGAVDQAMINRAKEIIEDITREAEVGQVYHAKVKRIEKYGAFVELFPGKDALLHISQISQERINKVEDVLKIGDTIEVKITEIDKQGRVNASHKVLEQSKN
For B1, the “stoichiometry N” value in the data set “native gel or EMSA” turned out to be 3. Moreover, in data set [3], the PNPase signal intensity as % of total signal in the eluate turned out to be 5.9%.
